In the nanobody polyreactivity screen of Harvey et al. (2022):

Assay: yeast display, Sf9 membrane polyspecificity reagent, FACS + sequencing; frameworks hold sequencing errors
In short: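 Polyreactivity labels are assigned by the sorting gate from which each nanobody was recovered. The gates were low and high (top ~1%), set on anti-HA fluorescence for expression and streptavidin fluorescence for reagent binding. Before sorting, galactose-induced (36–48 hours) yeast display cells were stained for 1 hour at 4 °C with 10% biotinylated, detergent-solubilized Sf9 membrane reagent.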

Sequence | polyreactivity (PSR sort gate)
QVQLVESGGGLVQAGGSLRLSCAASGLISESYAMGWYRPAPGKERELVAAISSGGSTYYADSVKGRFTISRDNAKNTVYLQMNSLKPEDTAVYYCNASGYKYTYGHAYYYAVDYWGQGTQVTVSS | low polyreactivity
QVQLVESGGGLVQAGGSLRLSCAASGLISVIYAMGWYRQAPGKERELVAAISWRGANTYYADSVKGRFTISRDNAKNTVYLQMNSLKPEDTAVYYCNAVLYVWFAPYRYDYWGQGTQVTVSS | high polyreactivity
QVQLVESGGGLVQAGGSLRLSCAASGLMFSYYAMGWYRQAPGKERELVAAISWNGGSTYYADSVKGRFTISRDNAKNTVYLQMNSLKPEDTAVYYCAVRLDLGWYYYWGQGTQVTVSS | high polyreactivity
QVQLVESGGGLVQAGGSLRLSCAASGLNCKTYTMGWDRQAPGKEREFVAAITTSGGSTYYADSVKGRFTISRDNAKNTVYLQMNSLKPEDTAVYYCDAVWCKSFQGSSYGMNYWGQGTLVTVSS | high polyreactivity
QVQLVESGGGLVQAGGSLRLSCAASGLNFRRNAMRWYRQAPGKERELVAVIDRGGRTNYADSVKGRFTISRDNAKTTVYLQMNSLKPEDTAVYYCAKRYASTSGYWGQGTQVTVSS | high polyreactivity
QVQLVESGGGLVQAGGSLRLSCAASGLPFKSNAMGWYRQAPGKERELVASISKRGGTTYYADSVKGRFTISRDNAKNTVYLQIKSLKPEDTAVYYCAAQSRATTYSWWTGSDYWGQGTEVTVSS | high polyreactivity
QVQLVESGGGLVQAGGSLRLSCAASGLSLQYYAMGWYSQAPGKDRELVAAISSRGVSTYYADSVKGRFTISRDNAKNTVYLQMNSLKPEETAVDYCNARQWRFGFVARGGKYNYWGQGTQVTVSS | high polyreactivity
QVQLVESGGGLVQAGGSLRLSCAASGLSSLRMLWDGLDRRLGKKGSWLPLITSGGDSTNYADSVKGRFTISRDNAKNTVYLQMNSLKPEDTAVYYCAADLDYPYGYWGQGTQVTVSS | low polyreactivity
QVQLVESGGGLVQAGGSLRLSCAASGLTCSRYAMGWYRQAPGKERELVASISQGGGSTYYADSVKGRFTISRDNAKNTVYLQMTSLKPEDTAVYYCAASWYYSLQRYGYWGQGTQVTVSS | high polyreactivity
QVQLVESGGGLVQAGGSLRLSCAASGLTCSYYAMGWYRQAPGQERELVAAISITGSTNYADSVKGRFTISRDNAKNTVYLQMNSLKPEDTAVYYCAARVRSGTGVGFDYWGQGTQVTVSS | high polyreactivity
QVQLVESGGGLVQAGGSLRLSCAASGLTDVRYAMGWYRQAPGKEREFVAAINWRGTRTYADSVKGRYTISRDNAKNTVYLQMNSLKPEDTAVYYCAARTLYFSKYVYWGQGTQVTVSS | high polyreactivity
QVQLVESGGGLVQAGGSLRLSCAASGLTFADYAMGWYRQAPGKERELVAAISSSDTSTYYADSVKGRFTISRDNAKNTVYLQMNSLKPEDTAVYYCAADEGYVWPYYGWGFGKYDYWGQGTQVTVSS | low polyreactivity
QVQLVESGGGLVQAGGSLRLSCAASGLTFAINTMGLNRQAPGKESELVAAITGSGGSTYYADSVKGRFTISRDNAKYTVYLQMKSLKPEDTAVYYCAAELLYVQGYAMDFWGQGTQVTVSS | low polyreactivity
QVQLVESGGGLVQAGGSLRLSCAASGLTFARNAMGWYRQAPGKERELVAAISSRGGSTYYADSVKGRFTISRDNAKNTVYLQMNSLKPEDTAVYYCATSQVLRRDRYDYWGQGTQVTVSS | high polyreactivity
QVQLVESGGGLVQAGGSLRLSCAASGLTFAVYAMGWYRQAPGKVRELVAAITYSGSRTYYADSVKGRFTISRDNAKNTVYLQMNSLKPEVTAVYYCNALYRRDIKFYYWGQGTQVTVSS | high polyreactivity
QVQLVESGGGLVQAGGSLRLSCAASGLTFAYYAMGWYSQAPGKEREMVASINSGGSTNYADSVKGRFTISRDNAKNTVYLLMNSLKPEDTAVYYCAADWATWWYTYDFWGQGTQVTVSS | high polyreactivity

Sequence | polyreactivity (PSR sort gate)
QVQLVESGGGLVQAGGSLRLSCAASGLTFAYYVMGWYRQAPGKERELVATITRGGDTNYADSVKGRFTISRDNAKNTVYLQINSLKPEDTAVYYCAAGSYRDRTFAYNYWGQGTQVTVSA | high polyreactivity
QVQLVESGGGLVQAGGSLRLSCAASGLTFDANAMGWYRQAPGKERELVATITSGGSTNYADSVKGRFTISRDNAKNTVYLQMNSLKPEDTAVYYCARGTSTGTYYWYGYWGHGTQVTVSS | low polyreactivity
QVQLVESGGGLVQAGGSLRLSCAASGLTFDVYTMVWYRQAPGKERELVATISETYYADSVKGRFTISRDNAKNTVYLQMNSLKPEDTAVYYCAANGFKAQYRDIVYDYGYWGQGTQVTVSS | low polyreactivity
QVQLVESGGGLVQAGGSLRLSCAASGLTFDYNAMGWYRQAPGKERELVAAITSGGSTKYADSVKGRFTISRDNAKNTVYLQMNSLKPEDTAVYYCAATAYVWYYLSYTYYYWGQGTQVTVSS | low polyreactivity
QVQLVESGGGLVQAGGSLRLSCAASGLTFDYYAMGWYRQAPGKERELVAAISISGDRTYYADSVKGRFTISRDNAKNTVYLQMNSLKPEDTAVYYCNARYPGSFRDDYWGQGTQVTVSS | high polyreactivity
QVQLVESGGGLVQAGGSLRLSCAASGLTFFGYAMGWYRQAPGKERELVAPISSSGTRTYYADSVKGRFTISRDNAKNTVYLQMNSLKPEDTAVYYCATVRYQEYDYWGQGTQVTVSS | high polyreactivity
QVQLVESGGGLVQAGGSLRLSCAASGLTFFPNVMGWYRQAPGKERELVAAISRSGDRTFYADSVKGRFTISRDNAKNTVYLQMNSLKPEDTAVYYCAADSGSSRSRRGYEYWGQGTQVTVSS | high polyreactivity
QVQLVESGGGLVQAGGSLRLSCAASGLTFGDYAMGWYRQAPGKEREFVAAISSSTGRTYYADSVKGRFTISRDNAKNTVYLQMNSLKPEDTAVYYCAVRYIYPSHYGYDYWGQGTQVSVSS | low polyreactivity
QVQLVESGGGLVQAGGSLRLSCAASGLTFGDYTMGWYRQAPGKERELVAAITWSGASTYSADSVKGRFTISRDNAKNTVYLQMNSLKPEDTAVYYCAAERTPSYRAYDYWAQGTQVTVSS | low polyreactivity
QVQLVESGGGLVQAGGSLRLSCAASGLTFGFYAMGWYRQAPGKERELVAGISNGGSTNYADSVKGRFTISRDNAKNTVYLQMNSLKPEDTAVYYCAARLYARRLYDYWGQGTQVTVSS | low polyreactivity
QVQLVESGGGLVQAGGSLRLSCAASGLTFGGYAMGWYRQAPGKERELVAAISRSGGSTYYADSVKGRFTISRDNAKNTVYLQMNSLQPEDTAVYYCNGGRGTKYDYWGQGTQVTVSS | low polyreactivity
QVQLVESGGGLVQAGGSLRLSCAASGLTFGGYVMGWYRPAPGKERELVAAISWSGTRTYYADSVKGRFTISRDNAKNTVYLQMNSLKPEDTAVYYCAARVKSYNRGYYWGQGTQVTVSS | high polyreactivity
QVQLVESGGGLVQAGGSLRLSCAASGLTFGHYAMGWYRQAPGKERELVATISSRGVSTRYADSVKGRFTISRDTAKNTVYLQMNSLKPEDTAVYYWHARDYTWGKYYSSKIGYYYWGQGTQVTVSS | high polyreactivity
QVQLVESGGGLVQAGGSLRLSCAASGLTFGIYTMGWYRQAPGKERELVAAINWIGTRTYYADSVKGRFTLSRDNAKNTVYLQMNSLKPEDTAVYYCATVIGYTKRKYDYWGQGTQVTVSS | high polyreactivity
QVQLVESGGGLVQAGGSLRLSCAASGLTFGLYAMGWYRQAPGIERELVAGITAGGRTYYADSVKGRFTISRDNAKNTVYLQMNSLKPEQTAVYYCATVNYRSGRGYRRVYTAYYYWGQGTQVTVSS | low polyreactivity
